Reference: patent US20110262445A1 (CEPHALON AUSTRALIA, published 2011)
Where two headings read alike, the source gives them in different places.

B1: Antibody 136 (antibody, human IgG1, kappa, V domains shown)
VH: EVQLVQSGAEVKKPGATVKISCKASGYTFSDYYLHWVRQAPEKGLEWMGWIDPENGDTEYAPKFQGRVTITADTSTDTGYLELSSLRSEDTAVYYCAANKELRYFDVWGQGTLVTVSS
VL: DIQMTQSPSSVSASVGDRVTITCRASQSISINLHWYQQKPGKAPKLLIYFASQSISGVPSRFSGSGSGTDFSLTINSLQTEDFATYYCQQSNSFPLTFGGGTKVEIKR
notes: Humanized PMA204 (1RZ7 framework)

Tests used:
[1] = target: T1, human IL-23 (human, UniProt P29460 23-328; Q9NPF7 20-189); experiment: neutralization ELISA: IL-23 preincubated with antibody, its binding to coated IL-23R is blocked
T1 construct: Recombinant (Ebioscience); HIS-tagged in flow cytometry, biotinylated in some assays; also called hIL-23; rhIL-23
T1 sequence 1: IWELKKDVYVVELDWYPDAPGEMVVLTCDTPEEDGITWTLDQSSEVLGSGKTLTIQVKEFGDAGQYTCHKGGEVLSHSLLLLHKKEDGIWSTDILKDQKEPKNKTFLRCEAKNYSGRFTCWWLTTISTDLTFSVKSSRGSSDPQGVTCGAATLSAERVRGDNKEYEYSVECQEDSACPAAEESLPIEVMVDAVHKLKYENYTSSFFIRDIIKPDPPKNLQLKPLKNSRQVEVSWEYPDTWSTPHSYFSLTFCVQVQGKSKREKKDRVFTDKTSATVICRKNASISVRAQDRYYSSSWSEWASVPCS
T1 sequence 2: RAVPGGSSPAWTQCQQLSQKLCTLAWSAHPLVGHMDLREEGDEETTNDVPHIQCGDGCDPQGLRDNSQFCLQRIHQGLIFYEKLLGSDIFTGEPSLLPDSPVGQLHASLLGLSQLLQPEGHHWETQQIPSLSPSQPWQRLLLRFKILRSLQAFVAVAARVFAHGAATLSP
Summary of the method: (§1)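 The IC50 was taken from a curve in a plate assay in which biotinylated IL-23, preincubated with titrated antibody, bound His-tagged IL-23R coated on the wells. The receptor, made in HEK-293E cells, was coated in carbonate buffer overnight at 4° C and blocked with 1% BSA. The IL-23 was used at 50 ng/ml, and the IL-23 and antibody mix stayed in the wells for 2 hours at 25° C. Signal came from Streptavidin HRP at 1:5000 with TMB, read at 450 nm with a 620 nm reference.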

[2] = target: T1, human IL-23; experiment: sandwich ELISA: IL-23 held by coated PMA202, Antibody 136 titrated, anti-human Fc-HRP
[3] = target: T2, human IL-12 (human, UniProt P29460 23-328; P29459 23-219); experiment: SPR, IgG on Protein A
T2 construct: Recombinant (Peprotech); FLAG-tagged IL-12 in the flow cytometry assays, biotinylated in the IL-12Rβ2 assay; also called hIL-12
T2 sequence 1: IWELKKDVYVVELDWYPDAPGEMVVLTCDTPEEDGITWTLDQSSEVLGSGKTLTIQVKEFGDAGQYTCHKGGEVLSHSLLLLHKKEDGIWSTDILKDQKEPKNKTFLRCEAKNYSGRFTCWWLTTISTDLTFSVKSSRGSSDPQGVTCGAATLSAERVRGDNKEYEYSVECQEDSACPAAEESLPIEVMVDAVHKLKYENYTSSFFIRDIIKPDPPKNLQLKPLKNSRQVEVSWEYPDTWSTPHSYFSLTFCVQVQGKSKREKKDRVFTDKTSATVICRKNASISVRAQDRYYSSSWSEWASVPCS
T2 sequence 2: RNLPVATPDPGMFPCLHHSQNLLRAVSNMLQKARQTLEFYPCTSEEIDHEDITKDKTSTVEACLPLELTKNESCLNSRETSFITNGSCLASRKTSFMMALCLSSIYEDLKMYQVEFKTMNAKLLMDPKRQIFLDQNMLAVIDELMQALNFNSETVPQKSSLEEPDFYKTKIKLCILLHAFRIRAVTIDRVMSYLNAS
Description: (§2) Using SPR technology the kₐ and kd and the KD of various humanized antibodies was determined.
(§3) Using a SPR 3000, Protein A was immobilized onto FC1 and FC2 (or alternatively FC3 and FC4) of a CM5 research grade sensor chip using amine coupling, giving approximately […] RU. FC1 was used a blank throughout the experiments. The experiments were run in HBS-P buffer (SPR). At a flow rate of 20 μl/min, 20 μl of 5 μg/mL of antibody was passed over FC2. IL-12, IL-23 or IL-12p40 (Peprotech) were passed over the surface of FC1 and FC2 at concentrations ranging from 66 nM to 2 nM. Regeneration of the surface was performed using 10 mM Glycine, pH 1.0. The sensorgram data from FC2 was subtracted from FC1 and a buffer only control. The curves were fitted using a 1:1 Langmuir equation to generate the kd, ka and KD values. All curves were fitted with a χ² of less then 2.0 where possible.

[4] = target: T1, human IL-23; experiment: SPR, IgG on Protein A
Description: as §2, §3

[5] = target: T2, human IL-12; experiment: sandwich ELISA: IL-12 held by coated PMA202, Antibody 136 titrated, anti-human Fc-HRP
Summary of the method: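 Capture antibody at 1 μg/mL was coated overnight at 4° C and blocked with 1% BSA. IL-12 at 0.5 μg/ml was bound for 1 hour at 25° C, followed by half-log serial dilutions of test antibody for 1 hour. Bound antibody was detected with goat anti-human IgG Fc-HRP (1:2000) and TMB, stopped with 1 M HCl, and optical density read at 450 nm (reference 620 nm). EC50 was read off the curve.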

[6] = target: T2, human IL-12; experiment: neutralization ELISA: IL-12 preincubated with antibody, its binding to coated IL-12Rβ2/Fc is blocked
Summary of the method: (§4)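 IL-12Rβ2/Fc chimera at 5 ug/ml in carbonate buffer was coated overnight at 4° C and blocked with 1% BSA for 1 hour at 25° C. Biotinylated IL-12 was preincubated with titrated antibody for 2 hours, then added to the wells for 2 hours at 25° C. Detection used Streptavidin HRP 1:5000 and TMB, stopped with 1M HCl, with absorbance read at 450 nm (reference 620 nm). IC50 was read off the curve.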

[7] = target: T2, human IL-12; experiment: ELISA, coated IL-12
Description: (§5) IL-12 (Peprotech), IL-23 (Ebioscience™), IL-12p40 (Ebioscience™) or IL-12p80 (Peprotech), was diluted to 1 μg/mL in carbonate coating buffer ([…] pH 9.6) and coated onto a 96 well plate (Nunc™, Maxisorp™) overnight at 4° C. The plate was then washed three times with wash buffer (0.01M PBS pH 7.2, 0.05% Tween-20) and then three times with 0.01M PBS pH 7.2. The wells were then blocked by adding 200 μl of blocking buffer (1% w/v BSA in 0.01 M PBS pH 7.2) to each well and incubating the plate at 25° C. for 1 hour. The antibody was diluted in antibody diluent (1% w/v BSA, 0.05% Tween-20 in 0.01M PBS pH 7.2) sufficient to generate a titration curve. The wells were incubated with the antibody for 1 hour at 25° C. The plate was then washed as previously described. Goat anti-human immunoglobulin G (H+L) antibody HRP conjugate (Zymed®) at 1:2000 in antibody diluent was used to detect bound primary antibody. Goat anti-murine immunoglobulin antibody HRP conjugate (Dako) at 1:2000 in antibody diluent was used to detect bound murine antibody. After incubation at 25° C. for 1 hour the plate was washed again as previously described. TMB substrate solution (Zymed®) was added to each well and the colour allowed to develop; the reaction was terminated by adding 1M HCl to the wells. The absorbance of each well was determined at 450 nm (ref. 620 nm).

[8] = target: B1; experiment: SPR control: PMA204 injected over Antibody 136 captured on Protein A, no cytokine
Description: (§6) Protein A (Thermo) was immobilized onto a CM5 sensor chip using a BIAcore 3000. Chimeric or humanized antibody at 5 ug/mL in HBS-P (GE Healthcare) was then injected for 1 min at a flow rate of 20 ul/min. IL-12 or IL-23 was then injected over the surface at 5 ug/mL in HBS-P for 1 min at a flow rate of 20 ul/min. Murine antibody was then injected at 5 ug/mL in HBS-P for 1 min at a flow rate of 20 ul/min. Controls in which IL-12 or IL-23 was replaced with HBS-P, and in which the murine antibody was replaced with HBS-P were also performed. All data was substrated from a control run in which IL-12 or IL-23 or the murine antibody was tested for background binding to the Protein A surface.

[9] = target: T1, human IL-23; experiment: neutralization ELISA: IL-23 preincubated with antibody, its binding to coated IL-23R is blocked; remark: listed apart in the source
Summary of the method: as §1

[10] = target: T1, human IL-23; experiment: ELISA, coated IL-23
Description: as §5

[11] = target: T2, human IL-12; experiment: neutralization ELISA: IL-12 preincubated with antibody, its binding to coated IL-12Rβ2/Fc is blocked; remark: listed apart in the source
Summary of the method: as §4

[12] = target: T2, human IL-12; experiment: SPR, IgG on Protein A; remark: listed apart in the source
Description: as §3

[13] = target: T1, human IL-23; experiment: SPR, IgG on Protein A; remark: listed apart in the source
Description: as §3

[14] = target: T3, human IL-12p40 (human, UniProt P29460 23-328); experiment: ELISA, coated IL-12p40
T3 construct: p40 monomer; also called p40 subunit
T3 sequence: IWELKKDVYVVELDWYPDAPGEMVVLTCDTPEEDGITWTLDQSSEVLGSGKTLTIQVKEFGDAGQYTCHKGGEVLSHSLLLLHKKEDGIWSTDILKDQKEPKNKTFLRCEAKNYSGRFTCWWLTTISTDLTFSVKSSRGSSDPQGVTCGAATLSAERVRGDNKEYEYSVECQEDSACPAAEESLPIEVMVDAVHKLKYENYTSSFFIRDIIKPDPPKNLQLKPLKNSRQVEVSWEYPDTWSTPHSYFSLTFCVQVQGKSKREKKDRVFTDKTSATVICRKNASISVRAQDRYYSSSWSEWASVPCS
Description: as §5

[15] = target: T2, human IL-12; experiment: SPR, IgG on Protein A; remark: listed apart in the source
Description: as §3

[16] = target: T3, human IL-12p40; experiment: SPR, IgG on Protein A
Description: as §3

[17] = target: T1, human IL-23; experiment: SPR, IgG on Protein A; remark: listed apart in the source
Description: as §3

[18] = target: B1; experiment: SPR control: PMA202 injected over Antibody 136 captured on Protein A, no cytokine
Description: as §6

## B1
[1]
  IC50 (read off the curve): ~1 µg/mL
[2]
  EC50 (read off the curve): ~0.06 µg/mL
[3]
  Kd: 197 pM
  koff: 0.000997 s⁻¹
  kon: 5.05e+06 M⁻¹ s⁻¹
[4]
  Kd: 105 pM
  koff: 0.000795 s⁻¹
  kon: 7.55e+06 M⁻¹ s⁻¹
[5]
  EC50 (read off the curve): ~0.1 µg/mL
[6]
  IC50 (read off the curve): ~0.4 µg/mL

B2: PMA204 (antibody, V domains shown)
VH: EVQLQQSGADLVRSGASIKLSCTASGFNIKDYYMHWVKQRPEQGLEWIGWIDPENGDTEYAPKFQGKATMTADTSSNTAYLQLSSLTSEDTAVYYCNACKELRYFDVWGAGTTVTVSS
VL: DIVLTQSPATLSVTPGDSVSLSCRASQSISINLHWYQQKSHESPRLLIKFASQSISGIPSRFSGYGSGTDFTLSINSVETEDFGRYFCQQSNSWPLTFGAGTKLELKR
notes: Murine hybridoma antibody, murine IgG1kappa
[7]
  EC50 (read off the curve): ~0.02 µg/mL
[8]
  binding result: no binding
[9]
  IC50 (read off the curve): ~0.6 µg/mL
[10]
  EC50 (read off the curve): ~0.01 µg/mL
[11]
  IC50 (read off the curve): ~0.2 µg/mL

B3: Antibody 1 (antibody, human IgG1, kappa, V domains shown)
VH: EVQLQQSGADLVRSGASIKLSCTASGFNIKDYYMHWVKQRPEQGLEWIGWIDPENGDTEYAPKFQGKATMTADTSSNTAYLQLSSLTSEDTAVYYCNACKELRYFDVWGAGTTVTVSS
VL: DIVLTQSPATLSVTPGDSVSLSCRASQSISINLHWYQQKSHESPRLLIKFASQSISGIPSRFSGYGSGTDFTLSINSVETEDFGRYFCQQSNSWPLTFGAGTKLELKR
notes: Chimeric PMA204, human IgG1/kappa
[12]
  Kd: 79.5 pM
  koff: 0.000132 s⁻¹
  kon: 1.67e+06 M⁻¹ s⁻¹
[13]
  Kd: 51.3 pM
  koff: 0.000146 s⁻¹
  kon: 2.85e+06 M⁻¹ s⁻¹
[9]
  IC50 (read off the curve): ~1 µg/mL
[14]
  EC50 (read off the curve): ~0.03 µg/mL
[15]
  Kd: 47.7 pM
  koff: 6.45e-05 s⁻¹
  kon: 1.36e+06 M⁻¹ s⁻¹
[16]
  Kd: 66.3 pM
  koff: 7.12e-05 s⁻¹
  kon: 1.07e+06 M⁻¹ s⁻¹
[17]
  Kd: 44.6 pM
  koff: 0.000114 s⁻¹
  kon: 2.55e+06 M⁻¹ s⁻¹
[11]
  IC50 (read off the curve): ~0.4 µg/mL

B4: PMA202 (antibody, V domains shown)
VH: QIQLVQSGPELKKPGETVKISCKASGYTFTNYGMNWVKQAPGKGLKWMGWINTYTGEPTYADDFKGRFAFSLETSASTAYLQINNFKNEDTATYFCARSLSTMITTTFAYWGQGTLVTVSS
VL: SIVMTQTPKFLLVSAGDRVTITCKASQSVSNDVAWYQQKPGQSPKLLIYYASNRYTGVPDRFTGSGYGTDFTFTISTVQAEDLAVYFCQQDYSSPYTFGGGTKLEIKR
notes: as for B2
[18]
  binding result: no binding
